# Assay results: publication PMC11319775
# Read-outs that look alike come from different tables or passages of the source.
# T1: TaHRP1:GST (UniProt A0A3B6H0D8 1-141)
# T1 sequence: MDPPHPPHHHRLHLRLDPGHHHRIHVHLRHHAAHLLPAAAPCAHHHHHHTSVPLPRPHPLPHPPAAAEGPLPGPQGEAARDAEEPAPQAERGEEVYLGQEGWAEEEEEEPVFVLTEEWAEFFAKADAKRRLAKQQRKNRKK
# B1: Probe-DNA (HBS promoter probe) (dsDNA)
# DNA 1: AAAACCAAAATAACTAGTTAAAGAAGAATGAAAGAGTTAAATTCCATTTATTTTT
# DNA 2: AAAAATAAATGGAATTTAACTCTTTCATTCTTCTTTAACTAGTTATTTTGGTTTT
# B2: mProbe-DNA (HBS mutated) (dsDNA)
# DNA 1: AAAACCAAAATAACTAGTTAGGCGGCGGTGAAAGAGTTAAATTCCATTTATTTTT
# DNA 2: AAAAATAAATGGAATTTAACTCTTTCACCGCCGCCTAACTAGTTATTTTGGTTTT
# Experiments:
# [1] = biological target: T1, TaHRP1:GST; assay: EMSA
# [2] = biological target: T1, TaHRP1:GST; assay: EMSA; remark: listed apart in the source
Binder,binding result [1],binding result [2]
B1,binds,
B2,,no binding
